Measurements: the supplement of paper PMC9170038

Test system: MS2 coat protein
Assay: apparent KD of MS2 coat protein; higher = weaker reporter binding
Details: Eterna round: R107
Procedure, shortened: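 On-chip transcription from Illumina sequencing clusters produced the designed RNA switches. These were titrated with SNAP-549-labelled MS2 coat protein (twofold steps, 0.7 or 1.5 nM to 3 µM) in 100 mM Tris-HCl pH 7.5, 80 mM KCl, 4 mM MgCl2, with or without constant ligand. The apparent KD given is the per-design median of normalised cluster binding-curve fits.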

[1] = input ligand: theophylline 20 uM
[2] = input ligand: theophylline 2 mM
[3] = input ligand: tryptophan 2.4 mM

Sequence | apparent KD of MS2 coat protein (input ligand: arginine 13.2 mM) [nM] | apparent KD of MS2 coat protein [1] [nM] | apparent KD of MS2 coat protein [2] [nM] | apparent KD of MS2 coat protein (input ligand: none) [nM] | apparent KD of MS2 coat protein [3] [nM]
AUAUAUACAUGAGGAUCACCCAUGUUAUUUCGAGGACCGGUACGGCCGCCACUCGAUAGAGUAGAAGUAACAUGUGUUAGUUGAU [JR_SSTryptoA_Sub014] | 16.3 | 32.8 | 39.1 |  | 
AUAUUAAUCGGAAGGAGCGGUACAUGAGGAUCACCCAUGUGUGAAGCGAGCAGAUCCCGUUACCAGGUAGGUCGCCGAGUUAUGA [XArg-B6] | 85.4 | 229 | 187 | 213 | 148
AUCGUACCUGAGGAUACCAGCAUGUGAUCAUAACAUGAGGAUCACCCAUGUAAUCAGUGAUGCCCUUGGCAGCUUGGUCGAUACA [Same State - Theophylline B (Freestyle 9)] | 42.5 | 75 |  |  | 46.2
AUCUUGUACCGUAAUACUUUACGUUGGGAUACCAGCAUGGACCCAUGCCCUUGGCAGCUUUACAUGAGGAUCACCCAUGUUGUAG [SSTheo A #28] | 26.3 | 42.2 |  |  | 39.9
AUGUCUGAGUCGGCCGCCACUGGGUGUGGGUGAUGCCGGAUGUUGUACAUGAGGAUCACCCAUGUCAGGACCGGGAUUCCCACGA [Receve] | 6.2 | 12.7 | 8.73 | 10.4 | 10.2
AUUAUCAUGGUCAUAUAUAUAUCUUCAGAUACCAGACUAUAUUAAGUCCCUUGGCAGCUGUUACAUGAGGAUCACCCAUGUUAUA [JR_ExcTheophyA_Sub014] | 53.9 | 76.1 |  |  | 102
AUUAUCAUGGUCAUAUAUAUUUCGUCAGAUACCAGACUAGAUAUAGUCCCUUGGCAGCUGUUACAUGAGGAUCACCCAUGUUAUA [JR_ExcTheophyA_Sub016] | 55 | 76.8 |  |  | 93.3
AUUUAUUGUCGUGAUACCAGACAUACAUGAGGAUCACCCAUGUUAAGUAACUUUUUUCAGGUCCCUUGGCAGCACUUUUUAAUUA [JR_Nu_SSTheophyB_Sub019] | 21.1 | 23.8 |  |  | 18.1
AUUUUUCUAUCAGAUACCAGACAAUUUUAGACAUGAGGAUCACCCAUGUAUAGGGUGUUCGUCCCUUGGCAGCUGUUAAGUUUAA [JR_SSTheophyB_Sub004] | 62 | 152 |  |  | 182
CAAUGCAGGUCGGCCGCCACUACACACAUGAGGAUCACCCAUGUAGUUACUGGGUGAAGUGGCAGUAGGACCGGGACCUGCAUAA [Brourdmod02] | 143 | 417 | 568 |  | 
CACAAUUUGUCGGCCGCCACUAAGGUAACUUUUCUCACAUGAGGAUCACCCAUGUGCCCGAAACUUAGGACCGGGAUAAUGGGUG [Usteraor] | 35.9 | 146 | 183 |  | 
CACAGUGCGAAAUUGAAUUCGCACGAUCCUCGAGGACCGGUACGGCCGCCACUCGCGCGGGUCGUACAUGAGGAUCACCCAUGUC [Zatiin] | 41.3 | 419 | 477 |  | 
CACAUGAGGAUCACCCAUGUCUGAACUGAAGGAGCGCUAAACAAGGCAGGUAGGUCGCGGAAUCUUGUGUGCAUAUGCACACGGG [9.S] | 18.4 | 27.4 | 22.7 | 18.2 | 19.9
CACGAAAGAUCGGCCGCCACUAUUUGAUGUGUUCUUUCACAUGAGGAUCACCCAUGUUCUUAUUUUAGGACCGGGAUUGAGCGUG [ETB #2] | 72.7 | 142 | 145 |  | 
CACGAAAGAUCGGCCGCCACUAUUUGAUGUGUUCUUUCACAUGAGGAUCACCCAUGUUCUUUCUUUAGGACCGGGAUUGAGCGUG [ETB #1] | 88.8 | 126 | 162 |  | 
CAGACUAGGGCGGCCGCCACUGUGGCUACGGUACAUGAGGAUCACCCAUGUUUGUGGUUGAUCUACAGGACCGGGCCCUGGCACG [Orbera] | 9.05 | 588 | 200 | 305 | 273
